Data published in patent publication US20210340208A1 (ANWITA BIOSCIENCES, published 2021).

T1: IL-2Rα-Fc fusion protein (human, UniProt P01589 22-240)
T1 construct: also called human IL-2Rα (CD25); CD25; not shown: Fc part and any linker are not described; captured on an anti-human IgG Fc sensor
T1 sequence: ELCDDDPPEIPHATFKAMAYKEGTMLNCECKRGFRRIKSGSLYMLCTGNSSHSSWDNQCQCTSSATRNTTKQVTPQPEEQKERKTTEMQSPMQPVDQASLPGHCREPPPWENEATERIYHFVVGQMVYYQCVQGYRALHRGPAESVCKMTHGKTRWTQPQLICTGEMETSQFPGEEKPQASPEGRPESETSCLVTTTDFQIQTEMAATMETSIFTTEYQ

T2: human CD122-Fc (AbroBio) (human, UniProt P14784 27-239)
T2 construct: also called IL-2Rβ; not shown: Fc part and any linker of the bought protein are not described; captured on an anti-human Fc sensor
T2 sequence: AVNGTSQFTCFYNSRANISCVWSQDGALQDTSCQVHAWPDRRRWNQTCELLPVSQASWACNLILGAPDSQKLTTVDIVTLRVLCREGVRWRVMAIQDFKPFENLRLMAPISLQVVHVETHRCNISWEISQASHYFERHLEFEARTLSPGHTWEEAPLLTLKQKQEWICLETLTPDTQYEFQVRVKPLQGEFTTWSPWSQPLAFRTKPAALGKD


Tests used:
IL-2Rα-Fc fusion protein = target: T1, IL-2Rα-Fc fusion protein; assay: BLI (Octet RED96), IL-2Rα-Fc on AHC biosensor
Protocol: OCTET® RED96 was used to characterize the interactions of a wild-type hIL-2 and hIL-2 muteins with a human IL-2Rα (CD25). Briefly, an IL-2Rα-Fc fusion protein was loaded onto an anti-human IgG Fc capture (AHC) biosensor. The biosensor was then dipped into a solution containing a wild-type hIL-2 (WT IL-2) or an IL-2 mutein at various concentrations. Primary experimental data was analyzed with global fitting to determine a binding affinity (Kd).

human CD122-Fc (AbroBio) = target: T2, human CD122-Fc (AbroBio); assay: BLI (Octet RED96), CD122-Fc on AHC sensor, 400 nM hIL-2 polypeptide
Protocol: OCTET® RED96 was used to characterize the interactions of a human CD122-Fc (AbroBio) with a wild-type hIL-2 and hIL-2 muteins. Briefly, an anti-human Fc sensor (AHC) loaded with the human CD122 was dip into 400 nM of an hIL-2 polypeptide. The binding signaling of fusion protein A1 was normalized to 1.

Binder | binding result (IL-2Rα-Fc fusion protein) | CD122 Binding Response (A1 normalized to 1) (human CD122-Fc (AbroBio))
hIL-2-anti-HSA A64 (ligand, fused to anti-HSA VHH; also called hIL-2 mutein (T3A, R38N, L40T, F42A, E95N, C125S)) APASSSTKKTQLQLEHLLLDLQMILNGINNYKNPKLTNMTTAKFYMPKKATELKHLQCLEEELKPLEEVLNLAQSKNFHLRPRDLISNINVIVLNLKGSETTFMCEYADETATIVEFLNRWITFSQSIISTLTGSGGSGGSGGSGEVQLVESGGGLVQPGGSLRLSCAASGSTWSINTLAWYRQAPGKQRDLVARISSGGSTYYADSVKGRFTISRDNSKNTLYLQMNSLRAEDTAVYYCYAQSTWYPPSWGQGTLVTVSS | – | 0.22
hIL-2-anti-HSA A61 (ligand, fused to anti-HSA VHH; also called hIL-2 mutein (T3A, H16N, R38N, L40T, F42A, C125S)) APASSSTKKTQLQLENLLLDLQMILNGINNYKNPKLTNMTTAKFYMPKKATELKHLQCLEEELKPLEEVLNLAQSKNFHLRPRDLISNINVIVLELKGSETTFMCEYADETATIVEFLNRWITFSQSIISTLTGSGGSGGSGGSGEVQLVESGGGLVQPGGSLRLSCAASGSTWSINTLAWYRQAPGKQRDLVARISSGGSTYYADSVKGRFTISRDNSKNTLYLQMNSLRAEDTAVYYCYAQSTWYPPSWGQGTLVTVSS | – | 0.17
hIL-2-anti-HSA A62 (ligand, fused to anti-HSA VHH; also called hIL-2 mutein (T3A, M23K, R38N, L40T, F42A, C125S)) APASSSTKKTQLQLEHLLLDLQKILNGINNYKNPKLTNMTTAKFYMPKKATELKHLQCLEEELKPLEEVLNLAQSKNFHLRPRDLISNINVIVLELKGSETTFMCEYADETATIVEFLNRWITFSQSIISTLTGSGGSGGSGGSGEVQLVESGGGLVQPGGSLRLSCAASGSTWSINTLAWYRQAPGKQRDLVARISSGGSTYYADSVKGRFTISRDNSKNTLYLQMNSLRAEDTAVYYCYAQSTWYPPSWGQGTLVTVSS | – | 0.29
hIL-2-anti-HSA A60 (ligand, fused to anti-HSA VHH; also called hIL-2 mutein (T3A, E15V, R38N, L40T, F42A, C125S)) APASSSTKKTQLQLVHLLLDLQMILNGINNYKNPKLTNMTTAKFYMPKKATELKHLQCLEEELKPLEEVLNLAQSKNFHLRPRDLISNINVIVLELKGSETTFMCEYADETATIVEFLNRWITFSQSIISTLTGSGGSGGSGGSGEVQLVESGGGLVQPGGSLRLSCAASGSTWSINTLAWYRQAPGKQRDLVARISSGGSTYYADSVKGRFTISRDNSKNTLYLQMNSLRAEDTAVYYCYAQSTWYPPSWGQGTLVTVSS | – | 0.14
hIL-2-anti-HSA A63 (ligand, fused to anti-HSA VHH; also called hIL-2 mutein (T3A, R38N, L40T, F42A, V91I, C125S)) APASSSTKKTQLQLEHLLLDLQMILNGINNYKNPKLTNMTTAKFYMPKKATELKHLQCLEEELKPLEEVLNLAQSKNFHLRPRDLISNINIIVLELKGSETTFMCEYADETATIVEFLNRWITFSQSIISTLTGSGGSGGSGGSGEVQLVESGGGLVQPGGSLRLSCAASGSTWSINTLAWYRQAPGKQRDLVARISSGGSTYYADSVKGRFTISRDNSKNTLYLQMNSLRAEDTAVYYCYAQSTWYPPSWGQGTLVTVSS | – | 0.35
hIL-2-anti-HSA A65 (ligand, fused to anti-HSA VHH; also called hIL-2 mutein (Q13N, K32E, F42C, V69C, C125S)) APTSSSTKKTQLNLEHLLLDLQMILNGINNYENPKLTRMLTCKFYMPKKATELKHLQCLEEELKPLEECLNLAQSKNFHLRPRDLISNINVIVLELKGSETTFMCEYADETATIVEFLNRWITFSQSIISTLTGSGGSGGSGGSGEVQLVESGGGLVQPGGSLRLSCAASGSTWSINTLAWYRQAPGKQRDLVARISSGGSTYYADSVKGRFTISRDNSKNTLYLQMNSLRAEDTAVYYCYAQSTWYPPSWGQGTLVTVSS | – | 0.5
hIL-2-anti-HSA A59 (ligand, fused to anti-HSA VHH; also called hIL-2 mutein (T3A, Q13E, R38N, L40T, F42A, C125S)) APASSSTKKTQLELEHLLLDLQMILNGINNYKNPKLTNMTTAKFYMPKKATELKHLQCLEEELKPLEEVLNLAQSKNFHLRPRDLISNINVIVLELKGSETTFMCEYADETATIVEFLNRWITFSQSIISTLTGSGGSGGSGGSGEVQLVESGGGLVQPGGSLRLSCAASGSTWSINTLAWYRQAPGKQRDLVARISSGGSTYYADSVKGRFTISRDNSKNTLYLQMNSLRAEDTAVYYCYAQSTWYPPSWGQGTLVTVSS | – | 0.55
hIL-2-anti-HSA A66 (ligand, fused to anti-HSA VHH; also called hIL-2 mutein (L19S, K32E, F42C, V69C, C125S)) APTSSSTKKTQLQLEHLLSDLQMILNGINNYENPKLTRMLTCKFYMPKKATELKHLQCLEEELKPLEECLNLAQSKNFHLRPRDLISNINVIVLELKGSETTFMCEYADETATIVEFLNRWITFSQSIISTLTGSGGSGGSGGSGEVQLVESGGGLVQPGGSLRLSCAASGSTWSINTLAWYRQAPGKQRDLVARISSGGSTYYADSVKGRFTISRDNSKNTLYLQMNSLRAEDTAVYYCYAQSTWYPPSWGQGTLVTVSS | – | 0.65

More lines, now with the values ahead:

binding result (IL-2Rα-Fc fusion protein) | CD122 Binding Response (A1 normalized to 1) (human CD122-Fc (AbroBio)) | Binder
no binding | – | hIL-2-anti-HSA A38 (ligand, fused to anti-HSA VHH; also called IL2 mutein (K32E, R38A, F42A, C125S)) APTSSSTKKTQLQLEHLLLDLQMILNGINNYENPKLTAMLTAKFYMPKKATELKHLQCLEEELKPLEEVLNLAQSKNFHLRPRDLISNINVIVLELKGSETTFMCEYADETATIVEFLNRWITFSQSIISTLTGSGGSGGSGGSGEVQLVESGGGLVQPGGSLRLSCAASGSTWSINTLAWYRQAPGKQRDLVARISSGGSTYYADSVKGRFTISRDNSKNTLYLQMNSLRAEDTAVYYCYAQSTWYPPSWGQGTLVTVSS
– | 0.3 | hIL-2-anti-HSA A67 (ligand, fused to anti-HSA VHH; also called hIL-2 mutein (K32E, F42C, V69C, D84T, C125S)) APTSSSTKKTQLQLEHLLLDLQMILNGINNYENPKLTRMLTCKFYMPKKATELKHLQCLEEELKPLEECLNLAQSKNFHLRPRTLISNINVIVLELKGSETTFMCEYADETATIVEFLNRWITFSQSIISTLTGSGGSGGSGGSGEVQLVESGGGLVQPGGSLRLSCAASGSTWSINTLAWYRQAPGKQRDLVARISSGGSTYYADSVKGRFTISRDNSKNTLYLQMNSLRAEDTAVYYCYAQSTWYPPSWGQGTLVTVSS
– | 1.31 | hIL-2-anti-HSA A70 (ligand, fused to anti-HSA VHH; also called hIL-2 mutein (K32E, F42C, V69C, V91I, I92L, C125S)) APTSSSTKKTQLQLEHLLLDLQMILNGINNYENPKLTRMLTCKFYMPKKATELKHLQCLEEELKPLEECLNLAQSKNFHLRPRDLISNINILVLELKGSETTFMCEYADETATIVEFLNRWITFSQSIISTLTGSGGSGGSGGSGEVQLVESGGGLVQPGGSLRLSCAASGSTWSINTLAWYRQAPGKQRDLVARISSGGSTYYADSVKGRFTISRDNSKNTLYLQMNSLRAEDTAVYYCYAQSTWYPPSWGQGTLVTVSS
– | 0.38 | hIL-2-anti-HSA A73 (ligand, fused to anti-HSA VHH; also called hIL-2 mutein (K32E, F42C, V69C, E95Q, C125S)) APTSSSTKKTQLQLEHLLLDLQMILNGINNYENPKLTRMLTCKFYMPKKATELKHLQCLEEELKPLEECLNLAQSKNFHLRPRDLISNINVIVLQLKGSETTFMCEYADETATIVEFLNRWITFSQSIISTLTGSGGSGGSGGSGEVQLVESGGGLVQPGGSLRLSCAASGSTWSINTLAWYRQAPGKQRDLVARISSGGSTYYADSVKGRFTISRDNSKNTLYLQMNSLRAEDTAVYYCYAQSTWYPPSWGQGTLVTVSS
– | 0.39 | hIL-2-anti-HSA A72 (ligand, fused to anti-HSA VHH; also called hIL-2 mutein (K32E, F42C, V69C, E95N, C125S)) APTSSSTKKTQLQLEHLLLDLQMILNGINNYENPKLTRMLTCKFYMPKKATELKHLQCLEEELKPLEECLNLAQSKNFHLRPRDLISNINVIVLNLKGSETTFMCEYADETATIVEFLNRWITFSQSIISTLTGSGGSGGSGGSGEVQLVESGGGLVQPGGSLRLSCAASGSTWSINTLAWYRQAPGKQRDLVARISSGGSTYYADSVKGRFTISRDNSKNTLYLQMNSLRAEDTAVYYCYAQSTWYPPSWGQGTLVTVSS
– | 1.44 | hIL-2-anti-HSA A71 (ligand, fused to anti-HSA VHH; also called hIL-2 mutein (K32E, F42C, V69C, I92L, C125S)) APTSSSTKKTQLQLEHLLLDLQMILNGINNYENPKLTRMLTCKFYMPKKATELKHLQCLEEELKPLEECLNLAQSKNFHLRPRDLISNINVLVLELKGSETTFMCEYADETATIVEFLNRWITFSQSIISTLTGSGGSGGSGGSGEVQLVESGGGLVQPGGSLRLSCAASGSTWSINTLAWYRQAPGKQRDLVARISSGGSTYYADSVKGRFTISRDNSKNTLYLQMNSLRAEDTAVYYCYAQSTWYPPSWGQGTLVTVSS
– | 1.93 | hIL-2-anti-HSA A69 (ligand, fused to anti-HSA VHH; also called hIL-2 mutein (K32E, F42C, V69C, S87D, C125S)) APTSSSTKKTQLQLEHLLLDLQMILNGINNYENPKLTRMLTCKFYMPKKATELKHLQCLEEELKPLEECLNLAQSKNFHLRPRDLIDNINVIVLELKGSETTFMCEYADETATIVEFLNRWITFSQSIISTLTGSGGSGGSGGSGEVQLVESGGGLVQPGGSLRLSCAASGSTWSINTLAWYRQAPGKQRDLVARISSGGSTYYADSVKGRFTISRDNSKNTLYLQMNSLRAEDTAVYYCYAQSTWYPPSWGQGTLVTVSS
– | 1.72 | hIL-2-anti-HSA A68 (ligand, fused to anti-HSA VHH; also called hIL-2 mutein (K32E, F42C, V69C, S87E, C125S)) APTSSSTKKTQLQLEHLLLDLQMILNGINNYENPKLTRMLTCKFYMPKKATELKHLQCLEEELKPLEECLNLAQSKNFHLRPRDLIENINVIVLELKGSETTFMCEYADETATIVEFLNRWITFSQSIISTLTGSGGSGGSGGSGEVQLVESGGGLVQPGGSLRLSCAASGSTWSINTLAWYRQAPGKQRDLVARISSGGSTYYADSVKGRFTISRDNSKNTLYLQMNSLRAEDTAVYYCYAQSTWYPPSWGQGTLVTVSS
